Results on 1 sequence are retold here after patent publication US20240368655.

The data set deals with Concanavalin A (UniProt P02866). Nature of the data set: SELEX. As to conditions: FANA copy of the listed DNA template; every U is C8-alkyne-FANA U conjugated to 2-azidoethyl-alpha-D-mannose; displayed on its encoding dsDNA; round 3 recovery by qPCR; round 1 about 0.14%; PBS, 2.5 mM MgCl2, 1 mM CaCl2, 0.1 mM MnCl2, 0.01% Tween 20, room temperature. In general terms: Real-time PCR tracks product formation cycle by cycle.

On to “CCTATAGCCGTTTGCACAAGNNNNNNNNNNNNNNNNNNNNNNNNNNNNNNNNNNNNNNNNCCCGTACCCGTTAAGATTACTTCGGACTGGGATC [Man-cmFANA N40 library, round 3]”, for which the binding turned out to be 47 % recovery.
